Experimental data published in article PMC3001161 (Molecular cell, 2010).

T1: Dcn1 potentiating neddylation (PONY) domain, Dcn1^P (budding yeast, UniProt Q12395 70-269)
T1 sequence (looked up): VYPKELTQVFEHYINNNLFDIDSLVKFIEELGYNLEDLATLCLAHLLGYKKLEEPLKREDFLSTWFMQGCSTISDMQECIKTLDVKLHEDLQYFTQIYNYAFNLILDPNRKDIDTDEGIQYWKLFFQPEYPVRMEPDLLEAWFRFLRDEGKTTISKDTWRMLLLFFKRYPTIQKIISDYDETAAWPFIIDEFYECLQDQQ

B1: isolated Cdc53 WHB subdomain (Cdc53^WHB) (domain or fragment, budding yeast, UniProt Q12018 730-815, looked up)
chain: NKRLTEDERIEKELNTERQIFLEACIVRIMKAKRNLPHTTLVNECIAQSHQRFNAKVSMVKRAIDSLIQKGYLQRGDDGESYAYLA
B2: Dcn1 potentiating neddylation (PONY) domain, Dcn1^P (domain or fragment)
chain: T1 sequence (looked up)
B3: full-length Dcn1 (natural protein, budding yeast, UniProt Q12395 1-269, looked up)
chain: MSNNKIKRKDASPEQEAIESFTSLTKCDPKVSRKYLQRNHWNINYALNDYYDKEIGTFTDEVSTVAHPPVYPKELTQVFEHYINNNLFDIDSLVKFIEELGYNLEDLATLCLAHLLGYKKLEEPLKREDFLSTWFMQGCSTISDMQECIKTLDVKLHEDLQYFTQIYNYAFNLILDPNRKDIDTDEGIQYWKLFFQPEYPVRMEPDLLEAWFRFLRDEGKTTISKDTWRMLLLFFKRYPTIQKIISDYDETAAWPFIIDEFYECLQDQQ

What was measured:
Assay in all cases: ITC
[1] = target: T1, Dcn1 potentiating neddylation (PONY) …
[2] = target: Cdc53^C+-Hrt1^ΔR complex (budding yeast)
[3] = target: B1
[4] = target: Cdc53^C+-Hrt1 complex (budding yeast) (UniProt Q12018)

| Kd [1] | stoichiometry N [2] | stoichiometry N [3] | stoichiometry N [4] | Binder |
| --- | --- | --- | --- | --- |
| 227 nM |  |  |  | B1 |
|  | 1 |  |  | B2 |
|  | 1 | 1 | 1 | B3 |
